{"source": "paper PMC10054023", "about": "“Fabrication of Rapid Electrical Pulse-Based Biosensor Consisting of Truncated DNA Aptamer for Zika Virus Envelope Protein Detection in Clinical Samples”", "binders": {"B1": {"name": "original Zika envelope aptamer (ZV apt) (structured_DNA)", "DNA": "TGACACCGTACCTGCTCTAGTGCGCACTGAACGATCCTGCGTCAAGTTCAAGGTTGTGAAGCACGCCAAGGGACTAT"}}, "key": {"[1]": {"biological_target": "T1, Zika virus envelope protein (Zika virus, UniProt A0A024B7W1 291-694)", "assay": "bead-based fluorescence binding assay; protein on magnetic beads; Bead assay: room temperature, 1 h, envelope protein 0.15 mg/mL on magnetic beads, aptamer 3 nM-1 uM, DIW wash; binding buffer not stated (folding predicted at 140 mM Na+, 5 mM Mg2+). Sensor: ACEF 10 min, read in 1 M KCl pH 7.", "details": "protein: commercial; label: 5' 6-FAM; stem-loops (mfold prediction)"}, "myoglobin": {"biological_target": "myoglobin (horse, UniProt P68082 2-154)", "sequence (P68082 2-154)": "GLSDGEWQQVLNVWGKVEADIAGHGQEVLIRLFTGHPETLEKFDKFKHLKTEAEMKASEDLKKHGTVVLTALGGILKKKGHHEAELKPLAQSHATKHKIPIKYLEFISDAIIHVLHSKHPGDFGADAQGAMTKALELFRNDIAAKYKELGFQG", "assay": "pulse voltammetry biosensor; no significant reactivity; Bead assay: room temperature, 1 h, envelope protein 0.15 mg/mL on magnetic beads, aptamer 3 nM-1 uM, DIW wash; binding buffer not stated (folding predicted at 140 mM Na+, 5 mM Mg2+). Sensor: ACEF 10 min, read in 1 M KCl pH 7.", "details": "protein: commercial; stem-loops (mfold prediction)"}, "hemoglobin": {"biological_target": "hemoglobin (horse, UniProt P01958;P02062 2-142;1-146)", "sequence (P01958 2-142, chain 1 of 2)": "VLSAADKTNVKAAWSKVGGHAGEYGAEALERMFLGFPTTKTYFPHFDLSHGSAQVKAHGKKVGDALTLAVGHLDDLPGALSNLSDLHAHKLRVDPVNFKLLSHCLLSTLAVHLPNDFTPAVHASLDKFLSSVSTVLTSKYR", "sequence (P02062 whole entry, chain 2 of 2)": "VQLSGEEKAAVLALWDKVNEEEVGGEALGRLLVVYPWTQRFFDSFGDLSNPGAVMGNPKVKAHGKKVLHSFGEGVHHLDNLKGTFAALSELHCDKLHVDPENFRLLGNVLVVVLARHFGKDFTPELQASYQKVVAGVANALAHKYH", "assay": "pulse voltammetry biosensor; no significant reactivity; Bead assay: room temperature, 1 h, envelope protein 0.15 mg/mL on magnetic beads, aptamer 3 nM-1 uM, DIW wash; binding buffer not stated (folding predicted at 140 mM Na+, 5 mM Mg2+). Sensor: ACEF 10 min, read in 1 M KCl pH 7.", "details": "protein: commercial; chain copies: 2;2; stem-loops (mfold prediction)"}, "fibrinogen": {"biological_target": "fibrinogen (UniProt P02671;P02675;P02679 20-629;31-491;27-453)", "sequence (P02671 20-629, chain 1 of 3)": "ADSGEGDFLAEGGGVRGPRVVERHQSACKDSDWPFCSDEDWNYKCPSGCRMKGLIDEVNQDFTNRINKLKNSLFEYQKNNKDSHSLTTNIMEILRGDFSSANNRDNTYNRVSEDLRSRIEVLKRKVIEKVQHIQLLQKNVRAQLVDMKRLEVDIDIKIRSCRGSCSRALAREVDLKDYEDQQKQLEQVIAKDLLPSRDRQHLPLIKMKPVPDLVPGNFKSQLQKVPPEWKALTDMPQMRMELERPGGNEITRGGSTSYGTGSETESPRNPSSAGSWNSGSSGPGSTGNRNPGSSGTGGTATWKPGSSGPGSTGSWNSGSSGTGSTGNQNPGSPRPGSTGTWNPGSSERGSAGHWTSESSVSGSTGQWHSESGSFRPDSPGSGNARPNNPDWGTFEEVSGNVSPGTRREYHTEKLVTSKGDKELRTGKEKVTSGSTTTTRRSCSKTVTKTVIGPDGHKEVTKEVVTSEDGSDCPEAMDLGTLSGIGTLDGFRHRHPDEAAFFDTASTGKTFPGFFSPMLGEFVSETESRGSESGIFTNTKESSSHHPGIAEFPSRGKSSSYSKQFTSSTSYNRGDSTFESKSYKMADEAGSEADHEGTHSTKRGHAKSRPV", "sequence (P02675 31-491, chain 2 of 3)": "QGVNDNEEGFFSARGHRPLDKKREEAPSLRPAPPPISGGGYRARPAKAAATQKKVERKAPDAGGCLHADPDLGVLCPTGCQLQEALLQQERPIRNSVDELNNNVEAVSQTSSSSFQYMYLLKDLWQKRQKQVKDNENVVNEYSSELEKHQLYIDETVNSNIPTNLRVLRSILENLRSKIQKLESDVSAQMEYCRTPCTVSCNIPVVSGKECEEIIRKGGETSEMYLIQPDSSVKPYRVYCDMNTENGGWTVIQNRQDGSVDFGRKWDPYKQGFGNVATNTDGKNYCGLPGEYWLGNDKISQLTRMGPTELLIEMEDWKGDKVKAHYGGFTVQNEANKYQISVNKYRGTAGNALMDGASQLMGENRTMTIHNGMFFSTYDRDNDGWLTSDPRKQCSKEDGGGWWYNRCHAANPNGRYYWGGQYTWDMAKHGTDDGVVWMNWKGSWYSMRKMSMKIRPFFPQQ", "sequence (P02679 27-453, chain 3 of 3)": "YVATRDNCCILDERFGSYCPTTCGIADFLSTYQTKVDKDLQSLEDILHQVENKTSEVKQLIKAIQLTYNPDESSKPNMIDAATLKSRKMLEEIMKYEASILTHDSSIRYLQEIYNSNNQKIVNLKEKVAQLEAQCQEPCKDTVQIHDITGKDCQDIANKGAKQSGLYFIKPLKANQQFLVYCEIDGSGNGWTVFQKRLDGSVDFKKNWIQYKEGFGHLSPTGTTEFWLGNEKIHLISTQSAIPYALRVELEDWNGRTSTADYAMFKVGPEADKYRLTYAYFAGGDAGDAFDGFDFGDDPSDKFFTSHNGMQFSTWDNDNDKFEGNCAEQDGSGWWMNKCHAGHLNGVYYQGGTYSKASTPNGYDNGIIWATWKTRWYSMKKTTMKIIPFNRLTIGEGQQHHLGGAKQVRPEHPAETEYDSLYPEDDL", "assay": "pulse voltammetry biosensor; no significant reactivity; Bead assay: room temperature, 1 h, envelope protein 0.15 mg/mL on magnetic beads, aptamer 3 nM-1 uM, DIW wash; binding buffer not stated (folding predicted at 140 mM Na+, 5 mM Mg2+). Sensor: ACEF 10 min, read in 1 M KCl pH 7.", "details": "protein: commercial; chain copies: 2;2;2; stem-loops (mfold prediction)"}, "[2]": {"biological_target": "T1, Zika virus envelope protein", "assay": "pulse voltammetry biosensor; ACEF; read in 1 M KCl pH 7; LOD 90.1 pM; Bead assay: room temperature, 1 h, envelope protein 0.15 mg/mL on magnetic beads, aptamer 3 nM-1 uM, DIW wash; binding buffer not stated (folding predicted at 140 mM Na+, 5 mM Mg2+). Sensor: ACEF 10 min, read in 1 M KCl pH 7.", "details": "protein: commercial; stem-loops (mfold prediction)"}, "[3]": {"biological_target": "T1, Zika virus envelope protein", "assay": "EMSA (8% TBE-PAGE); Kd slightly lower than truncated aptamer, value not given; […], aptamer 3 nM-1 uM, […]; binding buffer not stated ([…], read in 1 M KCl pH 7.", "details": "protein: commercial; stem-loops (mfold prediction)"}}, "data": [{"binder": "TGCGCACTGAACGATCCTGCGTCAAGTTCAAGGTTGTG (structured_DNA)", "note": "[truncated Zika aptamer (T-ZV apt), 5'-FAM]", "values": [{"measurement": "Kd", "setting": "[1]", "result": "333 ± 60.3", "unit": "nM"}]}, {"binder": "TGCGCACTGAACGATCCTGCGTCAAGTTCAAGGTTGTG (structured_DNA, thiol (SH), end not stated)", "note": "[truncated Zika aptamer (T-ZV apt), thiolated]", "values": [{"measurement": "binding result", "setting": "myoglobin", "result": "no binding"}, {"measurement": "binding result", "setting": "hemoglobin", "result": "no binding"}, {"measurement": "binding result", "setting": "fibrinogen", "result": "no binding"}, {"measurement": "binding result", "setting": "[2]", "result": "binds"}]}, {"binder": "B1", "values": [{"measurement": "binding result", "setting": "[3]", "result": "binds"}]}]}
